Results on 2 molecules are retold here after US20240166720A1 (Janssen / Centocor, published 2024).

Broadly, the EC50 (read off the curve) is the concentration that produces a half-maximal response.

The target of assay [1] is native CD40 receptor on HEK-Blue CD40L reporter cells (UniProt P25942 21-277, limits assumed). The experiment in a line: cell-based or functional assay.
Assay [2] concerns the target T1, recombinant CD40 receptor (hu CD40) (human, UniProt P25942 21-193, limits assumed, biotinylated in the MSD assay (site not stated)).
T1 construct: also called biotinylated CD40
Nature of the assay: MSD electrochemiluminescence plate assay: biotinylated CD40 (10 ug/ml) on streptavidin plates, three-fold dilutions of the test article, anti-human Fc detection (Example 4). On the procedure: Streptavidin sensor plates were coated with 10 ug/ml of biotinylated CD40 overnight at 4° C. The plates were washed 3× with PBS with 0.05% Tween 20 (PBST). Three-fold dilutions series of the test articles were prepared in PBS with 0.2% bovine serum albumin and 50 ul was applied to the plates for 1 hour at RT with shaking. Plates were washed 3× with PBST and anti-human Fc detection reagent at 2 ug/ml final concentration was applied for 1 hour at RT with shaking. The plates were washed 3× with PBST and 150 ul of 1× read buffer was added to the plates and data was collected on MSD instrument. Data was imported into […] Prism 8 software and analyzed and plotted based on the results three separate experiments.

T1 sequence (P25942 21-193 limits assumed): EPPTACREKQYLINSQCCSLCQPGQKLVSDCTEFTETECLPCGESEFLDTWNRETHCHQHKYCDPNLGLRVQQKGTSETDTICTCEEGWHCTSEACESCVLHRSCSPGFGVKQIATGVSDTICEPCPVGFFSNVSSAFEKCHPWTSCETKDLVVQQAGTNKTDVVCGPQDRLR
Sequence of native CD40 receptor on HEK-Blue CD40L reporter cells (P25942 21-277 limits assumed): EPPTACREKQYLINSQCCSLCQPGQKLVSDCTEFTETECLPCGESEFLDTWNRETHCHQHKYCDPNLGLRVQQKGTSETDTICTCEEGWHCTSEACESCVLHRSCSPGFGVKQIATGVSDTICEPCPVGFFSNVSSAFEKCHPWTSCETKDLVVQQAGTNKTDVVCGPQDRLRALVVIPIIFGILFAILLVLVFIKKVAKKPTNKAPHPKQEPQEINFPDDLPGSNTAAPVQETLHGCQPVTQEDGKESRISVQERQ

B1: TPP000182983 (Fc fusion)
chain: HTCPPCPAPEAAGGPSVFLFPPKPKDTLMISRTPEVTCVVVSVSHEDPEVKFNWYVDGVEVHNAKTKPREEQYNSTYRVVSVLTVLHQDWLNGKEYKCKVSNKALPAPIEKTISKAKGQPREPQVYTLPPSREEMTKNQVSLTCLVKGFYPSDIAVEWESNGQPENNYKTTPPVLDSDGSFFLYSKLTVDKSRWQQGNVFSCSVMHEALHNHYTQKSLSLSPGGGGGSNPQIAAHVISEASSKTTSVLQWAEKGYYTMSNNLVTLENGKQLTVKRQGLYYIYAQVTFCSNREASSQAPFIASLCLKSPGRFERILLRAANTHSSAKPCGQQSIHLGGVFELQPGASVFVNVTDPSQVSHGTGFTSFGLLKLGGGSGGGSGGGSNPQIAAHVISEASSKTTSVLQWAEKGYYTMSNNLVTLENGKQLTVKRQGLYYIYAQVTFCSNREASSQAPFIASLCLKSPGRFERILLRAANTHSSAKPCGQQSIHLGGVFELQPGASVFVNVTDPSQVSHGTGFTSFGLLKLGGGSGGGSGGGSNPQIAAHVISEASSKTTSVLQWAEKGYYTMSNNLVTLENGKQLTVKRQGLYYIYAQVTFCSNREASSQAPFIASLCLKSPGRFERILLRAANTHSSAKPCGQQSIHLGGVFELQPGASVFVNVTDPSQVSHGTGFTSFGLLKL
notes: Single chain trimeric CD40L fused to the C-terminus of the Fc; also called C4LW16
For B1, in assay [1], the “HEK-Blue reporter assay activity, fold against TPP000161222” value came out at 100 fold. For the same molecule, the “EC50 (read off the curve)” value in assay [2] is roughly 0.09 µg/mL.

B2: TPP000161222 (Fc fusion)
chain: IAAHVISEASSKTTSVLQWAEKGYYTMSNNLVTLENGKQLTVKRQGLYYIYAQVTFCSNREASSQAPFIASLCLKSPGRFERILLRAANTHSSAKPCGQQSIHLGGVFELQPGASVFVNVTDPSQVSHGTGFTSFGLLKLEGKSSGSGSQIAAHVISEASSKTTSVLQWAEKGYYTMSNNLVTLENGKQLTVKRQGLYYIYAQVTFCSNREASSQAPFIASLCLKSPGRFERILLRAANTHSSAKPCGQQSIHLGGVFELQPGASVFVNVTDPSQVSHGTGFTSFGLLKLEGKSSGSGSQIAAHVISEASSKTTSVLQWAEKGYYTMSNNLVTLENGKQLTVKRQGLYYIYAQVTFCSNREASSQAPFIASLCLKSPGRFERILLRAANTHSSAKPCGQQSIHLGGVFELQPGASVFVNVTDPSQVSHGTGFTSFGLLKLVERKSCVECPPCPAPPVAGPSVFLFPPKPKDTLMISRTPEVTCVVVDVSHEDPEVQFNWYVDGVEVHNAKTKPREEQFNSTFRVVSVLTVVHQDWLNGKEYKCKVSNKGLPAPIEKTISKTKGQPREPQVYTLPPSREEMTKNQVSLTCLVKGFYPSDIAVEWESNGQPENNYKTTPPMLDSDGSFFLYSKLTVDKSRWQQGNVFSCSVMHEALHNHYTQKSLSLSPGK
notes: This protein had only 38.76% monomer after protein A; also called C40W33; JNJ75347415
Consider B2, for which the binding result in assay [2] was “binds”.
